Measurements as given in US20260053918A1.

Molecular target: CD19 (UniProt P15391)
Assay: cell-based or functional assay

“CD19R:CD28:z(CO) CAR containing the 2 point mutations, L235E and N297Q, in the CH2 portion of the IgG4 spacer (CD19R(EQ)), expressed on CMV/CAR T cells” showed a total cell increase after 2 rounds of stimulation with irradiated CD19-expressing NIH3T3 cells of 120 to 150 fold.
